From PMC3786575

Biological target: USF-1-Flag (UniProt P22415)
Sequence of UniProt P22415 (P22415 whole entry): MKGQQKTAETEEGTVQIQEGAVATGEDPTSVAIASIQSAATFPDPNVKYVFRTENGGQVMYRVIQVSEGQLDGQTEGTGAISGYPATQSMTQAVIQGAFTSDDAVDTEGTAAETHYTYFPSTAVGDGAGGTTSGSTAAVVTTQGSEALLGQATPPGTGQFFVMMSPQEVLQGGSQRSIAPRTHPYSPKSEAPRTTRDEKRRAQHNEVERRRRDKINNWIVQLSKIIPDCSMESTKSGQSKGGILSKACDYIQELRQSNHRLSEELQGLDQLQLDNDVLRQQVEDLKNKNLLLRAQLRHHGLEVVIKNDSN

**Q.** With “BAF60c-HA (from UniProt Q6STE5 1-483) (natural protein)” as the substance, how does the USF-dependent FAS promoter activation, luciferase reporter (Fig. 3D) read?
**A.** Its USF-dependent FAS promoter activation, luciferase reporter (Fig. 3D) is 4 fold.

**Q.** How did the USF-dependent FAS promoter activation, luciferase reporter (Fig. 3D) turn out when “HA-tagged BAF60c S247D (from UniProt Q6STE5 1-483) (natural protein)” was run?
**A.** The USF-dependent FAS promoter activation, luciferase reporter (Fig. 3D) was 4 fold.
